In PMC11459465:

Tests used:
[1] = molecular target: WITO IDL trimer (HIV-1 strain WITO (clade B)); assay: cryo-EM structure
[2] = molecular target: BG505 IDL trimer (HIV-1 strain BG505 (clade A)); assay: cryo-EM structure
[3] = molecular target: BG505 IDL trimer (HIV-1 strain BG505 (clade A)); assay: negative-staining electron microscopy
[4] = molecular target: JR-FL IDL trimer (HIV-1 strain JR-FL (clade B)); assay: cryo-EM structure

## WITO IDL trimer (complex)
[1]
  stoichiometry N: 3

## BG505 IDL trimer (complex)
[2]
  stoichiometry N: 3
[3]
  stoichiometry N: 3

## JR-FL IDL trimer (complex)
[4]
  stoichiometry N: 3
